Source: patent US20170131285A1 (INSERM INSTITUT NATIONAL DE LA SANTE ET DE LA RECHERCHE …, published 2017)

Target: T1, recombinant HSP70 (Heat Shock 70 kDa Protein) (human, UniProt P0DMV8 1-641)
T1 construct: also called HSP72; human HSP70
Test: BLI (Octet Red), biotinylated A8 on streptavidin sensors, HSP70 in solution, 1:1 model global fit
Description: Protein-protein interaction experiments were conducted at 25° C. in PBS with an Octet Red instrument (Forte Bio, Menlo Park, Calif., USA) by biolayer interferometry (BLI). The ligand (cmHSP70 or A8 or TLR2) was biotinylated using EZ-Link NHS-PEG₄-biotin (Thermo Fisher Scientific, Bonn, Germany) according to the manufacturer's protocol and immobilized at a concentration of 20 μg/ml on streptavidin sensors (ForteBio, Menlo Park, Calif., USA). These functionalized biosensors were dipped into black Greiner 96-well microplates agitated at […] and filled with a solution of 200 μL containing the analyte. All sensorgrams were corrected for baseline drift by subtracting a control sensor exposed to running buffer only. Each KD was determined with a 1:1 stoichiometry model using a global fit with Rmax unlinked by sensor (Forte Bio, Data analysis software version 7.1.0.89).
Protein-protein interaction experiments were conducted with an Octet Red instrument (ForteBio, USA). The ligand (A8 or TLR2) was biotinylated using EZ-Link NHS-PEG₄-biotin (2 nM, 30 min, RT, Thermo Fisher Scientific, Germany) and immobilized on streptavidin sensors (96-well plate black, ForteBio, USA). […] Each KD was determined with a 1:1 stoichiometry model using a global fit with Rmax unlinked by sensor (ForteBio, Data analysis software version 7.1.0.89).

T1 sequence (P0DMV8 whole entry): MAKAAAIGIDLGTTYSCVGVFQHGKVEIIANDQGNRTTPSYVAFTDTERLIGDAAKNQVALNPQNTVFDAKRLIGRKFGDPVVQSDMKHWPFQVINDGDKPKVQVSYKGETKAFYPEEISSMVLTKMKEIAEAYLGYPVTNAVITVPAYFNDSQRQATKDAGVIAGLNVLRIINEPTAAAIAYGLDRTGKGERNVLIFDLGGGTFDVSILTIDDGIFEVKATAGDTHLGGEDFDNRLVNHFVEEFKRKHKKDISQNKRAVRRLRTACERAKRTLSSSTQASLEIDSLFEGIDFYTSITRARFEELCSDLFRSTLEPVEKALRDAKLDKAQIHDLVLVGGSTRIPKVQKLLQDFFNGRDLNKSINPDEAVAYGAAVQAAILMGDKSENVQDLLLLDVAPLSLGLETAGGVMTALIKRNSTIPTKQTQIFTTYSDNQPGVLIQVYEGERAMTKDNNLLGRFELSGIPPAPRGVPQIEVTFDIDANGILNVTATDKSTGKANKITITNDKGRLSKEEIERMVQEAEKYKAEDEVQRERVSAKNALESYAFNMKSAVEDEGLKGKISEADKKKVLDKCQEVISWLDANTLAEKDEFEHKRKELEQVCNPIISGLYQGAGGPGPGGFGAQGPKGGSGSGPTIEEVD

B1: peptide aptamer A8 (peptide)
peptide: SPWPRPTY
modifications: biotinylated with EZ-Link NHS-PEG4-biotin when immobilised on streptavidin sensors for BLI (site not stated); no modification stated for the solution assays
notes: also called A8 peptide aptamer; HSP70 peptide aptamer A8
- Kd: 2.2 nM
